Results as given in article doi:10.1101/2024.06.19.598823 (bioRxiv, 2024).

Legend:
[1] = target: SARS-CoV-2 spike ectodomain, trimeric recombinant (SARS-CoV-2, ancestral (Wuhan) assumed, UniProt P0DTC2); assay: cell-based or functional assay
[2] = target: 6P stabilized SARS-CoV-2 S-ectodomain (prefusion-stabilized ancestral Wuhan spike ectodomain trimer) (SARS-CoV-2, ancestral Wuhan, stabilised); assay: cryo-EM structure

B1: nanobody 7F (VHH)
VHH: EVQLVESGGGLVEAGGSLRLSCVASGLTFSDYTMAWFRQVPGQEREFVSHIGWGGSETYYADSVKGRFTISRDNAKNAMYLQMNELKPDDTAVYYCAADRGSSFYYVRESEYTFWGQGTQVTVSS
IC50 of neutralisation of VSV pseudotyped with SARS-CoV-2 spike on VeroE6 cells [1]: 33.4 nM
stoichiometry N [2]: 6 7F molecules per two spike trimers
